{"source": "patent CN114409779A", "target": "重组人NogoA蛋白 (recombinant human NogoA protein) (human) (UniProt Q9NQC3)", "sequence (Q9NQC3 1055-1120 limits assumed)": "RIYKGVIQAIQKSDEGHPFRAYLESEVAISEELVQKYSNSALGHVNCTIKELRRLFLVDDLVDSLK", "assay": "BLI (Gator label-free analyser), antibody captured on Protein A probe, NogoA at 10, 5, 2.5 and 0 ug/mL"}
{"binder": "NogoAD1-1 (antibody, part only; not given: Light chain variable domain, V domains shown, part only) VH: EVLLVESQQTPVKPGGSLKASCAGSQSVFLTAAYSWVRPTPEKLLEWVATISYGSPNTYYPDSVKGRYNEKFKGKATLTVETSSSTAYMQLSSLTSEDTAVYFCARRSYGEDSWFSYWGQGTLVTVSS", "values": [{"measurement": "Kd", "result": 8.2, "unit": "pM"}]}
